Read-outs that look alike come from different tables or passages of the source.
What was measured:
PC12 cells [1] = assay: Cell viability after photo-oxygenation reaction in the presence of cells (WST-8); type: cell-based, rat; conditions: light irradiation, regardless of presence or absence of Aβ (f and h)
Experimental: In a plate well in which the PC12 cells had been seeded, a phosphate buffer (pH 7.4, 50 μL) containing 20 μM of Aβ and a catalyst (Catalyst 1 in 4 μM or Catalyst 2 in 20 μM) was irradiated with 500 nm LED (light emitting diode) at 37° C. for 15 minutes. After the reaction, 50 μL of a HEPES buffer solution containing a 0.1% horse serum-containing medium was added to thereto (final Aβ concentration: 10 μM).
In order to achieve Aβ selective oxidation, a peptide having a high affinity for Aβ, D-[Lys-Leu-Val-Phe(4-phenyl)-Phe] (SEQ ID NO: 3) was identified, and was bonded to flavin as an affinity tag of Aβ (Catalyst 2 in FIG. 17). Catalyst 2 or riboflavin itself (Catalyst 1 in FIG. 17) was added to a phosphate buffer containing Aβ, and the mixture was irradiated with light in the presence of cells. 500 nm LED was used as a light source, and light was irradiated at 37° C. for 15 minutes. […] After the oxidation reaction, the cells were further incubated for 2 days, and the cell viability was determined thereafter (bar graph in FIG. 17). […] It is conceivable that the cells were damaged due to non-specific oxidation. On the other hand, when Catalyst 2 was used in the absence of Aβ under the condition j, 50% or more of the cells survived after the light irradiation. […]

Aβ = Aβ (Homo sapiens, UniProt P05067); assay: Oxidation of Aβ by catalyst under light irradiation; type: biochemical; conditions: Catalyst 1 4 μM or Catalyst 2 20 μM, Aβ 20 μM, 500 nm LED, 37° C., 15 minutes
Chain of Aβ (P05067 672-713 limits assumed): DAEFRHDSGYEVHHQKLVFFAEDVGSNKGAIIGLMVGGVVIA

Aβ1-42 [2] = target: T1, Aβ1-42 (Homo sapiens, UniProt P05067); assay: Thioflavin T fluorescence assay of aggregation; type: biochemical; conditions: Aβ1-42 20 μM, 37° C., incubation time of 3 hours and 6 hours
T1 sequence (P05067 672-713): as the sequence (P05067 672-713 limits assumed) above
Experimental: A part of the reaction mixture (10 μL) was added to a 50 mM glycine-NaOH buffer (pH 8.5, 400 μL) containing thioflavin T (5 μM), and the resultant mixture was immediately mixed to measure a fluorescence intensity of thioflavin T. In the fluorescence intensity measurement, an excitation wavelength was 440 nm, and a fluorescence wavelength was 470 nm.
A phosphate buffer having the same composition was reacted with no irradiation to provide a sample “native Aβ” as a control. Aggregation of each sample was evaluated by thioflavin T assay (it is known that fluorescence intensity of thioflavin T corresponds to the amount of an aggregate being rich in β sheet structure) (FIG. 11).

Aβ1-42 [3] = target: T1, Aβ1-42; assay: Atomic force microscope analysis of fibril formation; type: biochemical; conditions: Aβ1-42 20 μM, 37° C.
Experimental: A phosphate buffer (10 mM, pH 7.4) in which Aβ1-42 (20 μM) and riboflavin (4 μM) had been dissolved was incubated at 37° C. under irradiation with a fluorescent lamp (24 W, natural white, a distance between a light source and a reaction mixture was about 3 cm). A part of the reaction mixture (10 μL) was added on mica, incubated at room temperature for 3 minutes, washed with 20 μL of water, and air dried. The measurement was carried out using Nano Wizard II (JPK instruments AG, Berlin, Germany) in a tapping mode in air at room temperature.

Aβ1-42 [4] = target: T1, Aβ1-42; assay: Circular dichroism spectroscopy analysis; type: biochemical; conditions: Aβ1-42 20 μM, 37° C.
Experimental: A phosphate buffer (10 mM, pH7.4) in which Aβ1-42 (20 μM) and riboflavin (4 μM) had been dissolved was incubated at 37° C. under irradiation with a fluorescent lamp (24 W, natural white, a distance between a light source and a reaction mixture was about 3 cm). A part of the reaction mixture was analyzed using Model 202SF (AVIV Biomedical, Inc., Lakewood, N.J.).

native Aβ = native Aβ (Homo sapiens, UniProt P05067); assay: Inhibition of aggregation of native Aβ by oxidized Aβ (atomic force microscope analysis); type: biochemical; conditions: native Aβ 20 μM with oxidized Aβ 20 μM, 37° C., 6 hours, compared with native Aβ alone
Chain of native Aβ (P05067 672-713): as the sequence (P05067 672-713 limits assumed) above
Experimental: A part of the reaction mixture (10 μL) was added on mica, incubated at room temperature for 3 minutes, washed with 20 μL of water, and air dried. The measurement was carried out using Nano Wizard II (JPK instruments AG, Berlin, Germany) in a tapping mode in air at room temperature.

PC12 cells [5] = conditions: 10 µM
Experimental: PC12 cells, i.e., rat adrenal medulla-derived pheochromocytoma (purchased from RIKEN, Japan), were used. A phosphate buffer (pH 7.4) in which Aβ1-42 (20 μM) and riboflavin (4 μM) had been dissolved was incubated at room temperature under irradiation with a fluorescent lamp (24 W, natural white, a distance between a light source and a reaction mixture was about 3 cm). A part of the reaction mixture (50 μL) was added to a cell culture medium (50 μL) (final Aβ concentration was 10 μM), and the mixture was incubated at 37° C. for 48 hours under 5% CO2 atmosphere. Cells were observed and photographed using an inverted microscope DMI6000 B (Leica Microsystems GmbH, Wetzlar, Germany) equipped with a digital camera DFC360 FX (Leica Microsystems GmbH). A cell count reagent containing WST-8 (2-(2-methoxy-4-nitrophenyl)-3-(4-nitrophenyl)-5-(2,4-disulfonyl)-2H-tetrazolium, monosodium salt) (10 μL) was added to the mixture. The mixture was incubated at 37° C. for 6 hours under 5% CO2 atmosphere. Thereafter, absorbance at 450 nm (reference wavelength: 655 nm) was measured by iMark™ plate reader (Bio-Rad Laboratories, Inc., Hercules, Calif.).

## Cc1cc2nc3c(=O)[nH]c(=O)nc-3n(C[C@H](O)[C@H](O)[C@H](O)CO)c2cc1C [Catalyst 1, riboflavin]
PC12 cells [1]
  cell viability: almost all cells died
Aβ
  extent of Aβ oxidation: about 60%

## oxidized Aβ: Aβ1-42 oxidized with riboflavin under light; Tyr10, His13, His14 and Met35 oxidized, one to eight oxygen atoms added
Aβ1-42 [2]
  fluorescence intensity of thioflavin T: significantly lower than that of the native Aβ
Aβ1-42 [3]
  fibril formation: hardly
Aβ1-42 [4]
  secondary structure by circular dichroism: random coil structure was maintained
Native Aβ
  amyloid fibril content: significantly decreased
PC12 cells [5]
  cell viability: ≥ 50%

Reference: patent publication US11643448B2 (JAPAN SCIENCE AND TECHNOLOGY AGENCY, priority 2013, dated 2023)
